Test results published in patent US20200283521A1 (GRANULAR THERAPEUTICS, published 2020).

Experiments:
Experiment in all cases: direct ELISA on coated protein, IgG1
hLTBR-Fc = molecular target: T1, hLTBR-Fc (human, UniProt P36941)
T1 construct: Fc fusion; member of the panel m9

hVCAM-1 = molecular target: T2, hVCAM-1 (human, UniProt P19320)
T2 construct: purified recombinant protein; member of the panel m9
T2 sequence (looked up): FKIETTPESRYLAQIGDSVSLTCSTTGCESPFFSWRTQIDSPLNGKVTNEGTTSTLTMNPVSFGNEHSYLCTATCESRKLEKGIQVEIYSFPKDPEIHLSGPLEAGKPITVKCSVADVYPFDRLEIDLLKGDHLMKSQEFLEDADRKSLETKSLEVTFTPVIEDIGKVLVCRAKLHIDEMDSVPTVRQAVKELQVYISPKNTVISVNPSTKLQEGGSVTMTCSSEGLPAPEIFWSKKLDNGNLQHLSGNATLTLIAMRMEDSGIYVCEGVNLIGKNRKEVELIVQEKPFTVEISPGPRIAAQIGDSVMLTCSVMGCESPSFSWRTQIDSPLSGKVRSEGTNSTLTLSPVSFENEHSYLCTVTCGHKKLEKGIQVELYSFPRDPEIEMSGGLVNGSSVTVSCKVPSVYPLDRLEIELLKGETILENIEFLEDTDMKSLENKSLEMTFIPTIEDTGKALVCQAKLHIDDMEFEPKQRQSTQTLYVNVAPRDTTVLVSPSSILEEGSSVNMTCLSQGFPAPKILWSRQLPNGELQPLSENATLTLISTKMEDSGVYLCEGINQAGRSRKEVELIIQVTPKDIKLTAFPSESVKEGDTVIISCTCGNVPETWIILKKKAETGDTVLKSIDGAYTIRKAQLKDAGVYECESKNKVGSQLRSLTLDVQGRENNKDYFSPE

hEpCAM-Fc = molecular target: T3, hEpCAM-Fc (human, UniProt P16422)
T3 construct: Fc fusion; member of the panel m9
T3 sequence (looked up): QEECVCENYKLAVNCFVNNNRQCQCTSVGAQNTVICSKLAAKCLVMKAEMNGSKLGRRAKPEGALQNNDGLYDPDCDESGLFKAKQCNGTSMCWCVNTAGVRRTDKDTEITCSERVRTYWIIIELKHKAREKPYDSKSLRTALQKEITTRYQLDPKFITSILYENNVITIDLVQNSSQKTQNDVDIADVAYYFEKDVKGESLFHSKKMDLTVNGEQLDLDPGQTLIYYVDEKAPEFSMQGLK

hDR3-Fc = molecular target: T4, hDR3-Fc (human, UniProt Q93038)
T4 construct: Fc fusion; member of the panel m9
T4 sequence (looked up): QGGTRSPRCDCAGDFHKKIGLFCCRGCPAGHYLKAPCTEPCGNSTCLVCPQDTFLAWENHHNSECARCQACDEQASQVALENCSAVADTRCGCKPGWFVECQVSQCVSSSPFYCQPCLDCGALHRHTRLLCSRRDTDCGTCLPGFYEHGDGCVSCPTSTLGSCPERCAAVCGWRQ

hCMET-Fc = molecular target: T5, hCMET-Fc (The natural ectodomain is cleaved by furin after residue 307 into disulfide-linked alpha and beta chains. It is given here as one continuous stretch.)
T5 construct: member of the panel m9
T5 chain: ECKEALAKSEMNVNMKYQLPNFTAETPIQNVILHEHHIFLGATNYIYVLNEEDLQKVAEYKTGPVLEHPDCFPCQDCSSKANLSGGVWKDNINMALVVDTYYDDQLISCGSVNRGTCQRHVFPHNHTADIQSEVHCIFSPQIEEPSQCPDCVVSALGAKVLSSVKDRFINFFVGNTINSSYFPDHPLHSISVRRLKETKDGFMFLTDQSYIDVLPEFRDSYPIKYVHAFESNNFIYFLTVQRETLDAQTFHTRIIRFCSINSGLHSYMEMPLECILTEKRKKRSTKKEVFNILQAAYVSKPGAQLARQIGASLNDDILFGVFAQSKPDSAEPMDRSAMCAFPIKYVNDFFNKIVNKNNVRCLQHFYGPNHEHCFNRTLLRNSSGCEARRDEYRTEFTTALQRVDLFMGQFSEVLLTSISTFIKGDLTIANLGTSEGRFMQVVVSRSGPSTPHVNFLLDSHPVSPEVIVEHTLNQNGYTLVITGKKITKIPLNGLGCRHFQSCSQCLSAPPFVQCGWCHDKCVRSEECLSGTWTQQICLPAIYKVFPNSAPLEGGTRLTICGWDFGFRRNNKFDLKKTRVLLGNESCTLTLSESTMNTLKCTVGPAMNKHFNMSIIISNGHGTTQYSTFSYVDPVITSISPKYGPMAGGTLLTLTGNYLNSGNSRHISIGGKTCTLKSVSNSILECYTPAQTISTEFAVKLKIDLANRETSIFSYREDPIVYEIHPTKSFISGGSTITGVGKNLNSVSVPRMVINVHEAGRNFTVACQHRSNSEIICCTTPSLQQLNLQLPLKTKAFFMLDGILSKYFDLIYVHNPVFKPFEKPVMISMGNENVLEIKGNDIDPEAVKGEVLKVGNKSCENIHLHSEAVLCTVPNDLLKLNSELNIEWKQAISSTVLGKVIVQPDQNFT

hBAFFR-Fc = molecular target: T6, hBAFFR-Fc (human, UniProt Q96RJ3)
T6 construct: Fc fusion; member of the panel m9

hVCAM-Fc = molecular target: T7, hVCAM-Fc
T7 construct: member of the panel m9
T7 chain: T2 sequence (looked up)

hTWEAK-Fc = molecular target: T8, hTWEAK-Fc (human, UniProt O43508)
T8 construct: Fc fusion; member of the panel m9
T8 sequence (looked up): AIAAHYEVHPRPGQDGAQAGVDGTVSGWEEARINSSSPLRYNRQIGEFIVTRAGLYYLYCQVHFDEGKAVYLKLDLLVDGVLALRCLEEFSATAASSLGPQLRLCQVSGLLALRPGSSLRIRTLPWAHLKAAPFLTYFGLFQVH

hOX40-Fc = molecular target: T9, hOX40-Fc
T9 construct: member of the panel m9
T9 chain: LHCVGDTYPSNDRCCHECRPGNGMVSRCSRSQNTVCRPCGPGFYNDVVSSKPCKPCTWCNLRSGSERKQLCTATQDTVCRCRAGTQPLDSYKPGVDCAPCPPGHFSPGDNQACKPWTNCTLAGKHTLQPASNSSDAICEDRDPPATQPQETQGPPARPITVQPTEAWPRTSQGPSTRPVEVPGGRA

hICAM-1-Fc = molecular target: T10, hICAM-1-Fc (human, UniProt P05362)
T10 construct: Fc fusion; member of the panel m9
T10 sequence (P05362 28-480 limits assumed): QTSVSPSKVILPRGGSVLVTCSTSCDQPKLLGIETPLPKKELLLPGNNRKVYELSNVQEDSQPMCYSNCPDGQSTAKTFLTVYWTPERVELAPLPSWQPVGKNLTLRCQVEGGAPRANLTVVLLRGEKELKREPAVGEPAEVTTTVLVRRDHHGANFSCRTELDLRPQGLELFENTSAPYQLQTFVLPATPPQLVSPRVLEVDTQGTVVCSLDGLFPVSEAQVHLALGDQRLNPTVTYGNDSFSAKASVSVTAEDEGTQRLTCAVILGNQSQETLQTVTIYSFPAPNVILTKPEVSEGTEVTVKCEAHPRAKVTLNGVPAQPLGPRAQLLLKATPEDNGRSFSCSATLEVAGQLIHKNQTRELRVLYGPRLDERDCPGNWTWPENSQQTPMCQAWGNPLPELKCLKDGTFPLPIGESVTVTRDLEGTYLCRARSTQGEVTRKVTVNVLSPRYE

T6 sequence (Q96RJ3 7-71 limits assumed): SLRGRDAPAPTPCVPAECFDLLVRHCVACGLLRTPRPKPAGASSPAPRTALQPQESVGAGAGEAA
T1 sequence (P36941 28-227 limits assumed): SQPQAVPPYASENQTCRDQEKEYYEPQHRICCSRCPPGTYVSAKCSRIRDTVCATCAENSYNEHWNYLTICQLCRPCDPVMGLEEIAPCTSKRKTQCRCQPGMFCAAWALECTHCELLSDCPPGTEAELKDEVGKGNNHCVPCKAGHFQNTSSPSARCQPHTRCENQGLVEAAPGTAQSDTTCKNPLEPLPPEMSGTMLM

binding result (hLTBR-Fc): no binding (tested: 1 µg/ml)
binding result (hVCAM-1): no binding (tested: 1 µg/ml)
binding result (hEpCAM-Fc): no binding (tested: 1 µg/ml)
binding result (hDR3-Fc): no binding (tested: 1 µg/ml)
binding result (hCMET-Fc): no binding (tested: 1 µg/ml)
binding result (hBAFFR-Fc): no binding (tested: 1 µg/ml)
binding result (hVCAM-Fc): no binding (tested: 1 µg/ml)
binding result (hTWEAK-Fc): no binding (tested: 1 µg/ml)
binding result (hOX40-Fc): no binding (tested: 1 µg/ml)
binding result (hICAM-1-Fc): no binding (tested: 1 µg/ml)
B1: humanized h37M, human IgG1 (antibody, V domains shown)
VH: QVQLVQSGAEVKKPGASVKLSCKASGYTFTDYYINWVRQAPGKGLEWIARIYPGSGNTYYNEKFKGRATLTADKSTSTAYMQLSSLRSEDTAVYFCARGVYYFDYWGQGTTVTVSS
VL: DIVMTQSPSSLSASVGDRVTITCKASQNVRTNVAWYQQKPGKAPKALIYSASYRYSGVPDRFTGSGSGTDFTLTISSLQPEDFADYFCQQYNSYPRTFGGGTKVEIK
notes: human IgG1; terbium-labelled as the tracer of the HTRF assays; also called C-KIT-h37M; h37M-IgG1
